In patent US5985583, “Cloning and expression of gonadotropin-releasing hormone receptor” (Mount Sinai School of Medicine of The City University of …, dated 1999):
One block for each molecule: values may come before it. Non-standard residues stand in square brackets, D forms with d. No end group written: not given here. d(pGlu) = O=C1CC[C@H](C(=O)O)N1; NMeL = CN[C@@H](CC(C)C)C(=O)O

Experiments:
[1] = target: human gonadotropin-releasing hormone receptor (GnRH-R), clone LC27-4 (human)
[2] = target: human gonadotropin-releasing hormone receptor (GnRH-R), clone LC27-4 (human); experiment: Kd derived by the filing from the IC50 of inhibition of GnRH-stimulated inositol phosphate production in COS-1 cells expressing the human GnRH-R
[3] = target: T1, mouse gonadotropin-releasing hormone receptor (GnRH-R), clone WZ25 (mouse); experiment: displacement of 125I-GnRH-A by GnRH-A, membranes of WZ25 RNA-injected oocytes
T1 chain: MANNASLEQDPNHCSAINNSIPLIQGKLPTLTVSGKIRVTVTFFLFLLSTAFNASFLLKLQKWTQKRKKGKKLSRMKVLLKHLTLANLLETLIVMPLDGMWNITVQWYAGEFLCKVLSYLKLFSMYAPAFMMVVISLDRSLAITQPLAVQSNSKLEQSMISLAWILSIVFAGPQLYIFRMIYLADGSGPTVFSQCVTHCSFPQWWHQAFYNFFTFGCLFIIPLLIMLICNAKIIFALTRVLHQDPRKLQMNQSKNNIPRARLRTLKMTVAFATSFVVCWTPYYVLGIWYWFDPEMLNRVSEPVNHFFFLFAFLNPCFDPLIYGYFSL
Procedure: (§1) For membrane preparation, 500 oocytes were each injected with 2.5 ng synthetic WZ25 RNA. After 48 hours, oocyte membranes were prepared as described (Kobilka et al., 1987, J. Biol. Chem. 262: 15796–15802) and resuspended in binding buffer containing 10 mM HEPES, 1 mM EDTA, and 0.1% bovine serum albumin to give a final concentration of 20 oocytes/ml.
(§2) To further characterize the receptor encoded by this cDNA clone, radioligand binding assays were performed on membranes purified from oocytes injected with the WZ25 RNA transcript.

[4] = target: T1, mouse gonadotropin-releasing hormone …; experiment: displacement of 125I-GnRH-A by GnRH-A, αT3-1 cell membranes (endogenous mouse receptor)
[5] = target: T2, human gonadotropin-releasing hormone receptor (GnRH-R), clone LC27-4 (human); experiment: displacement of 125I-GnRH-A, membranes of COS-1 cells transfected with the human GnRH-R
T2 chain: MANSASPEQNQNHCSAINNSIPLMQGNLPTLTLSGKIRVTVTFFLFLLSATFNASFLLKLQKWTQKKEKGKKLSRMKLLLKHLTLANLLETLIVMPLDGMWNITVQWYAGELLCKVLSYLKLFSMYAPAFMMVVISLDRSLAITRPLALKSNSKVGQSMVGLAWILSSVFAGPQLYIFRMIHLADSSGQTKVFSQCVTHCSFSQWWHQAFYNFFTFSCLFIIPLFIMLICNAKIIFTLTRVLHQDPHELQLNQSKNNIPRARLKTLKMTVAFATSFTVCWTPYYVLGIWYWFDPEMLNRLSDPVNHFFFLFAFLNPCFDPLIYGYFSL
Procedure: (§3) For studies on inositol phosphate production, 1.8 ×10^5 cells/well (12-well plates) were transfected with 1.5 μg DNA. Cells were assayed 48 hours after transfection.
Cell membranes were prepared from transfected cells with a single centrifugation step as described for rat pituitaries (Millar et al., 1989, J. Biol. Chem. 264:21007–21013).

[6] = target: T2, human gonadotropin-releasing hormone …; experiment: Kd derived by the filing from the IC50 of inhibition of GnRH-stimulated inositol phosphate production in COS-1 cells expressing the human GnRH-R
Procedure: as §3

[7] = target: T1, mouse gonadotropin-releasing hormone …; experiment: displacement of 125I-GnRH-A by GnRH, membranes of WZ25 RNA-injected oocytes
Procedure: as §1, §2

Molecule: antagonist 13: [Ac-D-NaI1,D-α-4-ClPhe2, D-Pal3,D-Arg6, D-Ala10]GnRH (from UniProt P01148) (peptide)
IC50 of inhibition of GnRH-stimulated (10-8 M) inositol phosphate production in COS-1 cells transfected with pSV2A-human GnRH-R [1]: 6.7e-09 M
Kd [2]: 0.21 nM

Molecule: QHWSY[dA][NMeL]RP-NHEt (ends and bridges not checked; also: 125I label on the tracer form) [[D-Ala6, NαMe-Leu7, Pro9-NHEt]GnRH (GnRH-A)]
Kd [3]: 4.5 nM
Kd [4]: 2.9 nM
Kd [5]: 0.97 nM

Second part, the molecule after the results:

EC50 of inositol phosphate production in COS-1 cells transfected with pSV2A-human GnRH-R [1]: 3 nM
inositol phosphate production in COS-1 cells transfected with pSV2A-human GnRH-R [1]: 8 fold
Molecule: gonadotropin-releasing hormone (GnRH) (from UniProt P01148) (peptide)

IC50 of inhibition of GnRH-stimulated (10-8 M) inositol phosphate production in COS-1 cells transfected with pSV2A-human GnRH-R [1]: 1.05e-07 M
Kd [5]: 8.4 nM
Kd [6]: 3.6 nM
Molecule: [d(pGlu)][dF][dW]SY[dW]LRPG (ends and bridges not checked) [antagonist 5: [D-pGlu1,D-Phe2,D-Trp3,6]GnRH]

binding result [7]: binds
Molecule: QHWSYGLRPG [gonadotropin-releasing hormone (GnRH)]
